Measured values reported in the Human Domainome abundance scans (Beltran et al. 2025).
± gives the uncertainty stated by the source.

B1: Intersectin-1, residues 909 to 971; numbered along this chain, Q15811 (parent)
chain: QGEKVEGLQAQALYPWRAKKDNHLNFNKNDVITVLEQQDMWWFGEVQGQKGWFPKSYVKLISG

Variants of: B1
Assay: abundance fitness (aPCA) (normalised: wild type 0, dead -1); higher = more abundant; growth selection in yeast, the domain comes from the species named
Settings: Homo sapiens
In the case of Y57R, the abundance fitness is reported as -0.013 ± 0.08.
Variant A18M has an abundance fitness of -0.09 ± 0.11.
I32P showed an abundance fitness of -0.42 ± 0.21.
Work on W52K yielded an abundance fitness of -0.375 ± 0.45.
In the case of V46L, the abundance fitness is reported as 0.079 ± 0.083.
Variant I61G has an abundance fitness of -0.207 ± 0.069.
N29K showed an abundance fitness of -0.324 ± 0.3.
Variant Q49S has an abundance fitness of -0.232 ± 0.14.
In the case of R17M, the abundance fitness is reported as -0.081 ± 0.23.
In the case of E45H, the abundance fitness is reported as 0.089 ± 0.21.
Y57A gave an abundance fitness of 0.12 ± 0.11.
D39T showed an abundance fitness of -0.009 ± 0.2.
M40R showed an abundance fitness of -0.127 ± 0.1.
Work on W41C yielded an abundance fitness of -0.318 ± 0.096.
Work on K28R yielded an abundance fitness of -0.232 ± 0.19.
Work on W41T yielded an abundance fitness of -0.659 ± 0.23.
With A12K the abundance fitness was -0.773 ± 0.48.
For E45F, the abundance fitness was -0.055 ± 0.3.
Work on E45D yielded an abundance fitness of -0.223 ± 0.26.
Variant V5C has an abundance fitness of -0.488 ± 0.29.
For D30V, the abundance fitness was -0.357 ± 0.035.
Work on K50H yielded an abundance fitness of -0.271 ± 0.23.
Work on G44C yielded an abundance fitness of -0.79 ± 0.46.
For D30F, the abundance fitness was -0.742 ± 0.054.
With K19V the abundance fitness was 0.021 ± 0.043.
Q47N showed an abundance fitness of -0.084 ± 0.34.
Q49C showed an abundance fitness of 0.046 ± 0.16.
D21P showed an abundance fitness of -0.005 ± 0.057.
W41H gave an abundance fitness of -0.36 ± 0.2.
E6C gave an abundance fitness of -0.174 ± 0.2.
In the case of N22L, the abundance fitness is reported as -0.279 ± 0.17.
Variant V46G has an abundance fitness of -0.193 ± 0.073.
With L13M the abundance fitness was -0.204 ± 0.29.
For W42K, the abundance fitness was -1.18 ± 0.4.
For K28P, the abundance fitness was -0.584 ± 0.32.
For V46E, the abundance fitness was -0.584 ± 0.13.
In the case of V5Q, the abundance fitness is reported as -0.029 ± 0.14.
In the case of G2E, the abundance fitness is reported as -0.001 ± 0.17.
Variant V58C has an abundance fitness of -0.169 ± 0.14.
D21V showed an abundance fitness of 0.007 ± 0.051.
In the case of V46W, the abundance fitness is reported as -0.09 ± 0.13.
Variant L60C has an abundance fitness of 0.029 ± 0.11.
Variant V5T has an abundance fitness of -0.237 ± 0.16.
In the case of Q11P, the abundance fitness is reported as -1.03 ± 0.42.
Variant N27G has an abundance fitness of -0.185 ± 0.17.
P54M showed an abundance fitness of -0.25 ± 0.11.
With D21A the abundance fitness was 0 ± 0.047.
K4Y gave an abundance fitness of -0.039 ± 0.23.
Work on I61L yielded an abundance fitness of 0.002 ± 0.078.
With N29Y the abundance fitness was -0.282 ± 0.38.
Work on E36Q yielded an abundance fitness of -0.344 ± 0.34.
For M40S, the abundance fitness was 0.013 ± 0.12.
In the case of L24E, the abundance fitness is reported as -0.591 ± 0.11.
T33H gave an abundance fitness of -0.201 ± 0.39.
Work on I61F yielded an abundance fitness of 0.08 ± 0.29.
With P15M the abundance fitness was 0.114 ± 0.21.
In the case of E3M, the abundance fitness is reported as -0.312 ± 0.27.
With F43Y the abundance fitness was -0.119 ± 0.29.
With D39E the abundance fitness was -0.071 ± 0.15.
F26Q gave an abundance fitness of -1 ± 0.21.
For H23C, the abundance fitness was -0.492 ± 0.22.
N22P showed an abundance fitness of 0.037 ± 0.2.
With P15T the abundance fitness was -0.059 ± 0.17.
N29W gave an abundance fitness of -0.345 ± 0.1.
P15I showed an abundance fitness of -0.127 ± 0.2.
L8V gave an abundance fitness of 0.14 ± 0.082.
In the case of Q49Y, the abundance fitness is reported as -0.303 ± 0.31.
Variant A18N has an abundance fitness of -0.086 ± 0.065.
V46N showed an abundance fitness of -0.309 ± 0.3.
P15S showed an abundance fitness of 0.011 ± 0.12.
Variant D30N has an abundance fitness of -0.396 ± 0.049.
K50E showed an abundance fitness of -0.052 ± 0.12.
L8M gave an abundance fitness of 0.094 ± 0.13.
Work on L35R yielded an abundance fitness of -0.173 ± 0.14.
N25D gave an abundance fitness of -0.066 ± 0.1.
A10E showed an abundance fitness of -0.821 ± 0.29.
For K28M, the abundance fitness was -0.208 ± 0.19.
With W16T the abundance fitness was -0.646 ± 0.15.
M40L showed an abundance fitness of 0.008 ± 0.094.
I61E gave an abundance fitness of -0.088 ± 0.13.
Variant L24P has an abundance fitness of -0.383 ± 0.2.
Q1M gave an abundance fitness of -0.208 ± 0.31.
For S62D, the abundance fitness was -0.041 ± 0.22.
E3N gave an abundance fitness of 0.02 ± 0.17.
With D39M the abundance fitness was -0.221 ± 0.18.
For E3K, the abundance fitness was -0.079 ± 0.18.
With Y14T the abundance fitness was -0.191 ± 0.14.
For Q47L, the abundance fitness was -0.254 ± 0.11.
V34G showed an abundance fitness of -0.455 ± 0.087.
V46K gave an abundance fitness of -0.051 ± 0.21.
P15Y gave an abundance fitness of -0.269 ± 0.22.
In the case of W52M, the abundance fitness is reported as -0.804 ± 0.46.
For G63D, the abundance fitness was 0.07 ± 0.14.
K55N showed an abundance fitness of -0.054 ± 0.26.
K28V gave an abundance fitness of -0.256 ± 0.14.
In the case of W41P, the abundance fitness is reported as -0.94 ± 0.2.
Variant K28C has an abundance fitness of -0.172 ± 0.5.
Work on G44W yielded an abundance fitness of -1 ± 0.27.
In the case of Q47D, the abundance fitness is reported as -0.546 ± 0.2.
L24Q showed an abundance fitness of -0.694 ± 0.27.
S62T gave an abundance fitness of -0.209 ± 0.19.
Work on A10R yielded an abundance fitness of -0.807 ± 0.17.
Q11L showed an abundance fitness of -0.247 ± 0.098.
Work on E6I yielded an abundance fitness of -0.29 ± 0.23.
With W16Q the abundance fitness was -0.396 ± 0.16.
Variant E3S has an abundance fitness of -0.319 ± 0.25.
With Q11T the abundance fitness was -0.098 ± 0.13.
S62K gave an abundance fitness of -0.158 ± 0.28.
N22W showed an abundance fitness of -0.172 ± 0.14.
Variant I32V has an abundance fitness of -0.052 ± 0.062.
I32L gave an abundance fitness of -0.23 ± 0.062.
Work on E45I yielded an abundance fitness of -0.192 ± 0.16.
Variant K28A has an abundance fitness of -0.264 ± 0.19.
Q47W gave an abundance fitness of -0.125 ± 0.17.
L24T showed an abundance fitness of -0.694 ± 0.15.
P15L gave an abundance fitness of -0.338 ± 0.13.
Variant H23F has an abundance fitness of -0.123 ± 0.26.
In the case of L8I, the abundance fitness is reported as -0.136 ± 0.31.
In the case of L24A, the abundance fitness is reported as -0.436 ± 0.061.
Work on R17W yielded an abundance fitness of -0.24 ± 0.25.
Variant P54D has an abundance fitness of -0.721 ± 0.27.
N25L gave an abundance fitness of -0.28 ± 0.15.
Variant W41I has an abundance fitness of -0.815 ± 0.45.
With V5D the abundance fitness was 0.126 ± 0.4.
With T33N the abundance fitness was -0.233 ± 0.16.
L8S showed an abundance fitness of -0.117 ± 0.11.
Work on K59H yielded an abundance fitness of -0.211 ± 0.33.
For D39Q, the abundance fitness was -0.328 ± 0.16.
For F43V, the abundance fitness was -0.923 ± 0.18.
For L24W, the abundance fitness was -0.778 ± 0.16.
For E45K, the abundance fitness was -0.222 ± 0.21.
W41A gave an abundance fitness of -0.489 ± 0.13.
Work on Q49M yielded an abundance fitness of -0.052 ± 0.21.
G63I gave an abundance fitness of -0.151 ± 0.35.
G44A gave an abundance fitness of -1.03 ± 0.34.
With L13E the abundance fitness was -0.267 ± 0.26.
For Q9T, the abundance fitness was -0.076 ± 0.14.
Work on G48H yielded an abundance fitness of -0.381 ± 0.49.
W41F gave an abundance fitness of -0.238 ± 0.18.
Work on E45M yielded an abundance fitness of -0.18 ± 0.17.
With K19F the abundance fitness was 0.032 ± 0.051.
In the case of N22K, the abundance fitness is reported as 0.022 ± 0.12.
In the case of K50T, the abundance fitness is reported as -0.108 ± 0.15.
Q37K showed an abundance fitness of 0.149 ± 0.28.
With N27R the abundance fitness was -0.016 ± 0.15.
With F26I the abundance fitness was -0.072 ± 0.22.
E3C gave an abundance fitness of -0.153 ± 0.29.
Work on I61K yielded an abundance fitness of -0.079 ± 0.16.
L8K showed an abundance fitness of -0.136 ± 0.15.
In the case of Q38R, the abundance fitness is reported as 0.029 ± 0.12.
With N25G the abundance fitness was -0.081 ± 0.052.
Work on W41L yielded an abundance fitness of -0.252 ± 0.089.
With L8A the abundance fitness was 0.043 ± 0.092.
With K4R the abundance fitness was -0.126 ± 0.1.
D21L showed an abundance fitness of -0.012 ± 0.063.
F43W gave an abundance fitness of -0.061 ± 0.14.
With L35W the abundance fitness was 0.111 ± 0.19.
For G51A, the abundance fitness was -0.408 ± 0.2.
L13I gave an abundance fitness of -0.393 ± 0.46.
With Y57V the abundance fitness was -0.084 ± 0.11.
For D30W, the abundance fitness was -0.331 ± 0.054.
Work on N27A yielded an abundance fitness of -0.114 ± 0.31.
For V58I, the abundance fitness was -0.451 ± 0.17.
T33K gave an abundance fitness of -0.1 ± 0.099.
Work on Q11A yielded an abundance fitness of -0.239 ± 0.094.
Q11H showed an abundance fitness of -0.131 ± 0.29.
L35C showed an abundance fitness of 0.145 ± 0.36.
